T1: cynomolgus monkey B7-H4 (recombinant, BLI) (cynomolgus monkey, UniProt Q7Z7D3 25-259 (human entry))
T1 construct: also called Cynomolgus B7-H4
T1 sequence: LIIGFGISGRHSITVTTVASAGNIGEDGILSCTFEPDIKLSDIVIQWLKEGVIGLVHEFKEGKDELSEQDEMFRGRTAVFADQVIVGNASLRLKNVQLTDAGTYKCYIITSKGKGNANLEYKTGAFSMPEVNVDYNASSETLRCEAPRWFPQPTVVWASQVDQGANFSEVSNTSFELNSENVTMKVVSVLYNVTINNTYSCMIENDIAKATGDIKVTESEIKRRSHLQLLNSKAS

T2: mouse B7-H4 (recombinant, BLI) (mouse, UniProt Q7TSP5 29-256, limits assumed)
T2 construct: also called murine B7-H4
T2 sequence: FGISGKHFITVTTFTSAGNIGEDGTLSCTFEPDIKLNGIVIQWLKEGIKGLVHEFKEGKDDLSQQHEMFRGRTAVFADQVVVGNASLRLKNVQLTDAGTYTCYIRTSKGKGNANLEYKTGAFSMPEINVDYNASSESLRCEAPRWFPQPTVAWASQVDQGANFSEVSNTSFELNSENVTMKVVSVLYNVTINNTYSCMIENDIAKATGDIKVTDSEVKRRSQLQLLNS

T3: human B7-H4 on the cell surface (human, UniProt Q7Z7D3 25-282)
T3 sequence: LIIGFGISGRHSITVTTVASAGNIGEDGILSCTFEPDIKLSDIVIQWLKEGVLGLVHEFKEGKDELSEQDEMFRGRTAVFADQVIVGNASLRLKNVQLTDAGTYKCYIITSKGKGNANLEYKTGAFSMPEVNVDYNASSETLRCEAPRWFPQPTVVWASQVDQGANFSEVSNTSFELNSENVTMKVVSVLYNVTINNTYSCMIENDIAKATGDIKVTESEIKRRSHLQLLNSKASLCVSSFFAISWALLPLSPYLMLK


Experiments:
[1] = target: T4, recombinant human B7-H4-huIgG1 (human); assay: BLI, antigen on Protein A tips;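 further: Anti-B7-H4 antibodies assessed for affinity toward the B7-H4 extracellular domain using biolayer interferometry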
T4 construct: also called B7-H4-extracellular domain (ECD)
Protocol: (§1) Binding affinities of anti-B7-H4 antibodies to B7-H4-extracellular domain (ECD) were determined by biolayer interferometry (BLI). […] Anti-B7-H4 antibodies were then evaluated for binding.

[2] = target: T1, cynomolgus monkey B7-H4 (recombinant, …); assay: BLI, antigen on Protein A tips;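 further: Anti-B7-H4 antibodies assessed for affinity toward the B7-H4 extracellular domain using biolayer interferometry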
Protocol: as §1

[3] = target: T2, mouse B7-H4 (recombinant, BLI); assay: BLI, antigen on Protein A tips;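 further: Anti-B7-H4 antibodies assessed for affinity toward the B7-H4 extracellular domain using biolayer interferometry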
Protocol: as §1

[4] = target: T3, human B7-H4 on the cell surface; assay: cell-based or functional assay

Kd [1] [nM]	koff [1] [s⁻¹]	kon [1] [M⁻¹ s⁻¹]	Kd [2] [nM]	koff [2] [s⁻¹]	kon [2] [M⁻¹ s⁻¹]	Kd [3] [nM]	koff [3] [s⁻¹]	kon [3] [M⁻¹ s⁻¹]	Donor 2 Max IFNγ [4] [pg/mL]	Donor 1 Max IFNγ [4] [pg/mL]	Donor 3 Max IFNγ [4] [pg/mL]	Donor 4 Max IFNγ [4] [pg/mL]	aAPC Assay EC50 (IFNγ production) [4] [nM]	Binder
5.67	0.00104	184000	5.44	0.00108	199000	16.7	0.00167	99500	–	–	–	–	–	B7-H4 antibody 22208 (antibody, human IgG1, kappa, V domains shown, human IgG1/kappa) VH: QLQLQESGPGLVKPSETLSLTCTVSGGSIKSGSHYWGWIRQPPGKGLEWIGNIYYSGSTYYNPSLKSRVTMSVDTSKNQFSLKLSSVTAADTAVYYCAREGSYPNWFDPWGQGTLVTVSS VL: EIVMTQSPATLSVSPGERATLSCRASQSVSTNLAWYQQKPGQAPRLLIYDASARVTGIPARFSGSGSGTEFTLTISSLQSEDFAVYYCQQYHSFPFTFGGGTKVEIKR
1.47	0.000359	245000	1.47	0.000359	245000	1.47	0.000359	245000	–	–	–	–	–	B7-H4 antibody 22216 (antibody, human IgG1, kappa, V domains shown, human IgG1/kappa) VH: QVQLQESGPGLVKPSQTLSLTCTVSGGSISDGSYYWSWIRQHPGKGLEWIGNIYYSGSTYYNPSLRSRVTMSVDTSKNQFSLKLSSVTAADTAVYYCARGLSTIDEAFDPWGQGTLVTVSS VL: DIQMTQSPSTLSASVGDRVTITCRASKSISSWLAWYQQKPGKAPKLLIYEASSLHSGVPSRFSGSGSGTEFTLTISSLQPDDFATYYCQQDNSYPYTFGGGTKVEIKR

Continued, binder first:

Binder	Kd [1] [nM]	koff [1] [s⁻¹]	kon [1] [M⁻¹ s⁻¹]	Kd [2] [nM]	koff [2] [s⁻¹]	kon [2] [M⁻¹ s⁻¹]	Kd [3] [nM]	koff [3] [s⁻¹]	kon [3] [M⁻¹ s⁻¹]	Donor 2 Max IFNγ [4] [pg/mL]	Donor 1 Max IFNγ [4] [pg/mL]	Donor 3 Max IFNγ [4] [pg/mL]	Donor 4 Max IFNγ [4] [pg/mL]	aAPC Assay EC50 (IFNγ production) [4] [nM]
B7-H4 antibody 20516 (antibody, human IgG1, kappa, V domains shown, human IgG1/kappa) VH: QVQLQESGPGLVKPSETLSLTCTVSGGSIISYYWGWIRQPPGKGLEWIGYIYSSGSTSYNPSLKSRVTISVDTSKNQFSLKLSSVTAADTAVYYCARGSGLYAAPDYGLDVWGQGTTVTVSS VL: DIQMTQSPSTLSASVGDRVTITCRASQSISSWLAWYQQKPGKAPKLLIYKASSLESGVPSRFSGSGSGTEFTLTISSLQPDDFATYYCQQDNSFPFTFGGGTKVEIKR	18	0.00738	410000	17.6	0.00783	445000	41.4	0.0165	398000	441	–	–	–	–
B7-H4 antibody 20506 (antibody, V domains shown, human IgG1/kappa) VH: QLQLQESGPGLVKPSETLSLTCTASGGSISHGGYYWSWIRQHPGKGLEWIGNIYYSGSTYYNPSLKSRVTMSVDTSKNQFSLKLSSVTAADTAVYYCARESSTISADFDLWGRGTLVTVSS VL: DIQMTQSPSSVSASVGDRVTITCRASQGISRWLAWYQQKPGKAPKLLIYAASSLQSGVPSRFSGSGSGTDFTLTISSLQPEDFATYYCQQAHTFPYTFGGGTKVEIKR	1.69	0.000746	441000	1.48	0.000678	458000	3.53	0.00164	466000	259	981	86.1	2300	1.25
B7-H4 antibody 20513 (antibody, human IgG1, kappa, V domains shown, human IgG1/kappa) VH: QLQLQESGPGLVKPSETLSLTCTVSGGSISDGSYYWSWIRQHPGKGLEWIGNIYYSGSTYYNPSLRSRVTMSVDTSKNQFSLKLSSVTAADTAVYYCARGLSTIDEAFDPWGQGTLVTVSS VL: not shown	3.98	0.0018	453000	3.67	0.0018	491000	4.57	0.00236	517000	240	659	91.1	1630	1.16

From patent US20240043542A1 (published 2024)
